The chains are these.
T1: human IL-18BP (human, UniProt O95998 31-194)
T1 construct: UniProt printed as 095998; also called hIL-18BP
T1 sequence: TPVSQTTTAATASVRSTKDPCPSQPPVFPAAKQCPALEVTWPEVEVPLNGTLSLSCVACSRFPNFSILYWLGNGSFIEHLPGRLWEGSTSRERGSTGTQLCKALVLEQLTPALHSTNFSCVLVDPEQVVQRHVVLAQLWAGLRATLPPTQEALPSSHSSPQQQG

B1: SA301a HC-N58H (antibody, name in Kabat numbering, V domains shown)
VH: QVQLQESGPGLVKPSQTLSLTCTVSGYSITSDYNSHWIRQPPGKGLEWIGYIHYSGSTHYNPSLKSRVTISRDTSKNQFSLKLSSVTAADTAVYYCARNYGSIYVNYFDYWGQGTLVTVSS
VL: EIVLTQSPATLSLSPGERATLSCSASSSVSYMYWYQQKPGQAPRPLIYRTSNLASGIPARFSGSGSGTDFTLTISSLEPEDFAVYYCQQYHSYPTFGGGTKVEIK
notes: IgG1 kappa
B2: SA301a HC-N58Q (antibody, name in Kabat numbering, V domains shown)
VH: QVQLQESGPGLVKPSQTLSLTCTVSGYSITSDYNSHWIRQPPGKGLEWIGYIHYSGSTQYNPSLKSRVTISRDTSKNQFSLKLSSVTAADTAVYYCARNYGSIYVNYFDYWGQGTLVTVSS
VL: EIVLTQSPATLSLSPGERATLSCSASSSVSYMYWYQQKPGQAPRPLIYRTSNLASGIPARFSGSGSGTDFTLTISSLEPEDFAVYYCQQYHSYPTFGGGTKVEIK
notes: IgG1 kappa
B3: SA301a HC-N58P (antibody, name in Kabat numbering, V domains shown)
VH: QVQLQESGPGLVKPSQTLSLTCTVSGYSITSDYNSHWIRQPPGKGLEWIGYIHYSGSTPYNPSLKSRVTISRDTSKNQFSLKLSSVTAADTAVYYCARNYGSIYVNYFDYWGQGTLVTVSS
VL: EIVLTQSPATLSLSPGERATLSCSASSSVSYMYWYQQKPGQAPRPLIYRTSNLASGIPARFSGSGSGTDFTLTISSLEPEDFAVYYCQQYHSYPTFGGGTKVEIK
notes: IgG1 kappa
B4: SA301a HC-N58I (antibody, name in Kabat numbering, V domains shown)
VH: QVQLQESGPGLVKPSQTLSLTCTVSGYSITSDYNSHWIRQPPGKGLEWIGYIHYSGSTIYNPSLKSRVTISRDTSKNQFSLKLSSVTAADTAVYYCARNYGSIYVNYFDYWGQGTLVTVSS
VL: EIVLTQSPATLSLSPGERATLSCSASSSVSYMYWYQQKPGQAPRPLIYRTSNLASGIPARFSGSGSGTDFTLTISSLEPEDFAVYYCQQYHSYPTFGGGTKVEIK
notes: IgG1 kappa
B5: SA301a HC-N58K (antibody, name in Kabat numbering, V domains shown)
VH: QVQLQESGPGLVKPSQTLSLTCTVSGYSITSDYNSHWIRQPPGKGLEWIGYIHYSGSTKYNPSLKSRVTISRDTSKNQFSLKLSSVTAADTAVYYCARNYGSIYVNYFDYWGQGTLVTVSS
VL: EIVLTQSPATLSLSPGERATLSCSASSSVSYMYWYQQKPGQAPRPLIYRTSNLASGIPARFSGSGSGTDFTLTISSLEPEDFAVYYCQQYHSYPTFGGGTKVEIK
notes: IgG1 kappa
B6: SA301a HC-N58R (antibody, name in Kabat numbering, V domains shown)
VH: QVQLQESGPGLVKPSQTLSLTCTVSGYSITSDYNSHWIRQPPGKGLEWIGYIHYSGSTRYNPSLKSRVTISRDTSKNQFSLKLSSVTAADTAVYYCARNYGSIYVNYFDYWGQGTLVTVSS
VL: EIVLTQSPATLSLSPGERATLSCSASSSVSYMYWYQQKPGQAPRPLIYRTSNLASGIPARFSGSGSGTDFTLTISSLEPEDFAVYYCQQYHSYPTFGGGTKVEIK
notes: IgG1 kappa
B7: SA301a HC-N58S (antibody, name in Kabat numbering, V domains shown)
VH: QVQLQESGPGLVKPSQTLSLTCTVSGYSITSDYNSHWIRQPPGKGLEWIGYIHYSGSTSYNPSLKSRVTISRDTSKNQFSLKLSSVTAADTAVYYCARNYGSIYVNYFDYWGQGTLVTVSS
VL: EIVLTQSPATLSLSPGERATLSCSASSSVSYMYWYQQKPGQAPRPLIYRTSNLASGIPARFSGSGSGTDFTLTISSLEPEDFAVYYCQQYHSYPTFGGGTKVEIK
notes: IgG1 kappa
B8: SA301a HC-N58M (antibody, name in Kabat numbering, V domains shown)
VH: QVQLQESGPGLVKPSQTLSLTCTVSGYSITSDYNSHWIRQPPGKGLEWIGYIHYSGSTMYNPSLKSRVTISRDTSKNQFSLKLSSVTAADTAVYYCARNYGSIYVNYFDYWGQGTLVTVSS
VL: EIVLTQSPATLSLSPGERATLSCSASSSVSYMYWYQQKPGQAPRPLIYRTSNLASGIPARFSGSGSGTDFTLTISSLEPEDFAVYYCQQYHSYPTFGGGTKVEIK
notes: IgG1 kappa

The test deals with T1, human IL-18BP. As to the kind of experiment: BLI, apparent KD. A general note: In BLI a coated tip is dipped into the sample, and binding shifts an interference pattern.
For the molecule B1, the Kd was 0.31 nM. For B2 the value was 0.62 nM; for B3, 0.41 nM. On to B4, for which the Kd is 0.27 nM. For B5 the value was 0.34 nM; for B6, 0.46 nM; for B7, 1.37 nM. In the case of B8, the Kd turned out to be 0.23 nM.

The values above are taken from patent US20250368745A1 (published 2025).
